Test results as given in patent EP4585618A1 (Jiangsu Hengrui Pharmaceuticals Co., Ltd., dated 2025).

Tests used:
[1] = target: T1, full-length human ILT4 protein overexpressed on cells (human, UniProt Q8N423 22-597); test: flow cytometry competition on CHO-S/ILT4 cells; competitor CF647-labelled HLA-G tetramer; Assay 1
T1 construct: also called CHO-S/ILT4; ILT4 stably transfected cell strain

[2] = target: T2, His-tagged ILT4 protein extracellular domain: ILT4-His (human, UniProt Q8N423 22-460); test: ELISA, coated ILT4-His 1 µg/mL; Assay 2
T2 construct: Expressed in 293 cells; also called human ILT4-His protein

[3] = target: T2, His-tagged ILT4 protein extracellular …; test: ELISA, coated ILT4-His 1 µg/mL; Assay 1
[4] = target: T1, full-length human ILT4 protein …; test: flow cytometry competition on CHO-S/ILT4 cells; competitor CF647-labelled HLA-G tetramer; Assay 3
[5] = target: T1, full-length human ILT4 protein …; test: flow cytometry competition on CHO-S/ILT4 cells; competitor CF647-labelled HLA-G tetramer; Assay 4
[6] = target: T2, His-tagged ILT4 protein extracellular …; test: ELISA, coated ILT4-His 1 µg/mL; Assay 5
[7] = target: T1, full-length human ILT4 protein …; test: flow cytometry competition on CHO-S/ILT4 cells; competitor CF647-labelled HLA-G tetramer; Assay 2
[8] = target: T2, His-tagged ILT4 protein extracellular …; test: ELISA, coated ILT4-His 1 µg/mL; Assay 3
[9] = target: T2, His-tagged ILT4 protein extracellular …; test: ELISA, coated ILT4-His 1 µg/mL; Assay 4
[10] = target: T3, His-tagged ILT2 protein extracellular domain: ILT2-His (human, UniProt Q8NHL6 24-461); test: ELISA, coated protein 1 µg/mL, antibody 10 µg/mL
T3 construct: The entry is the whole construct, with the His tag; also called human ILT2 protein

[11] = target: T4, LILRB5-His (Acro, CDC-H5220) (human, UniProt O75023 24-458, limits assumed); test: ELISA, coated protein 1 µg/mL, antibody 10 µg/mL
T4 construct: Bought protein. 'Human' stands at the head of the list of coated proteins; not shown: His tag

[12] = target: T5, LILRA5-His (Acro, LI5-H82E1) (human, UniProt A6NI73 42-268); test: ELISA, coated protein 1 µg/mL, antibody 10 µg/mL
T5 construct: Bought protein. 'Human' stands at the head of the list of coated proteins; not shown: His tag

[13] = target: T6, LILRA4-His (SinoBiological, 16058-H08H) (human, UniProt P59901 24-446); test: ELISA, coated protein 1 µg/mL, antibody 10 µg/mL
T6 construct: Bought protein. 'Human' stands at the head of the list of coated proteins; not shown: His tag

[14] = target: T7, LILRA6-His (Acro, LI6-H82E2) (human, UniProt Q6PI73 24-447); test: ELISA, coated protein 1 µg/mL, antibody 10 µg/mL
T7 construct: Bought protein. 'Human' stands at the head of the list of coated proteins; not shown: His tag

[15] = target: T2, His-tagged ILT4 protein extracellular …; test: ELISA, coated protein 1 µg/mL, antibody 10 µg/mL
[16] = target: T8, LILRA3-His (Acro, LI3-H82E0) (human, UniProt Q8N6C8 24-439); test: ELISA, coated protein 1 µg/mL, antibody 10 µg/mL
T8 construct: Bought protein. 'Human' stands at the head of the list of coated proteins; not shown: His tag

[17] = target: T9, LILRA2-His (Acro, LI2-H82E9) (human, UniProt Q8N149 24-449); test: ELISA, coated protein 1 µg/mL, antibody 10 µg/mL
T9 construct: Bought protein. 'Human' stands at the head of the list of coated proteins; not shown: His tag

[18] = target: T10, His-tagged ILT3 protein extracellular domain: ILT3-His (human, UniProt Q8NHJ6 22-259); test: ELISA, coated protein 1 µg/mL, antibody 10 µg/mL
T10 construct: The entry is the whole construct, with the His tag

[19] = target: T11, LILRA1-His (Acro, LI1-H82E8) (human, UniProt O75019 17-461); test: ELISA, coated protein 1 µg/mL, antibody 10 µg/mL
T11 construct: Bought protein. 'Human' stands at the head of the list of coated proteins; not shown: His tag

[20] = target: T3, His-tagged ILT2 protein extracellular …; test: ELISA, coated protein 1 µg/mL
[21] = target: T4, LILRB5-His (Acro, CDC-H5220); test: ELISA, coated protein 1 µg/mL
[22] = target: T5, LILRA5-His (Acro, LI5-H82E1); test: ELISA, coated protein 1 µg/mL
[23] = target: T6, LILRA4-His (SinoBiological, 16058-H08H); test: ELISA, coated protein 1 µg/mL
[24] = target: T7, LILRA6-His (Acro, LI6-H82E2); test: ELISA, coated protein 1 µg/mL
[25] = target: T8, LILRA3-His (Acro, LI3-H82E0); test: ELISA, coated protein 1 µg/mL
[26] = target: T9, LILRA2-His (Acro, LI2-H82E9); test: ELISA, coated protein 1 µg/mL
[27] = target: T10, His-tagged ILT3 protein extracellular …; test: ELISA, coated protein 1 µg/mL
[28] = target: T11, LILRA1-His (Acro, LI1-H82E8); test: ELISA, coated protein 1 µg/mL
[29] = target: T2, His-tagged ILT4 protein extracellular …; test: SPR (Biacore), antibody captured on Protein A chip, ILT4-His as analyte, 1:1 model
[30] = target: T1, full-length human ILT4 protein …; test: flow cytometry (FACS) on CHO-S/ILT4 cells; Assay 1

T9 sequence (Q8N149 24-449 limits assumed): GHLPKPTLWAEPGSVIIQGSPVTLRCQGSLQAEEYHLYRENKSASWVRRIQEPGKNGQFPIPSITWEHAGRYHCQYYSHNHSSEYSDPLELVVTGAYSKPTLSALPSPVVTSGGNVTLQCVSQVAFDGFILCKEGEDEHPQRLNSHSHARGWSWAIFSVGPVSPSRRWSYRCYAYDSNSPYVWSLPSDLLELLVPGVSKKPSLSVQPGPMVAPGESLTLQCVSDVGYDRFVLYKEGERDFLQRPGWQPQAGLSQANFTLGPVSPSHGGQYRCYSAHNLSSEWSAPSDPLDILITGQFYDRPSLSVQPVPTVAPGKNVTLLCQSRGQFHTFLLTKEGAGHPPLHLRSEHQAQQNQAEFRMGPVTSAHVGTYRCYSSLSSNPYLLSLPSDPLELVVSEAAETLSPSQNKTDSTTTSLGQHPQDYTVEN
T5 sequence (A6NI73 42-268 limits assumed): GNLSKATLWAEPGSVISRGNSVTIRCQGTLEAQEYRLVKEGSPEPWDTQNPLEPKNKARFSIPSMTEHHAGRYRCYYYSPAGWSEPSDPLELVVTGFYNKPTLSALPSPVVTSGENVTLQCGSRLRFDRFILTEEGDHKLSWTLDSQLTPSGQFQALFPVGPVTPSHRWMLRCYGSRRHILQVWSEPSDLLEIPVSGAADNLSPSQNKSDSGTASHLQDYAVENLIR
T2 sequence (Q8N423 other isoform, or with tags, fused parts or gaps limits assumed): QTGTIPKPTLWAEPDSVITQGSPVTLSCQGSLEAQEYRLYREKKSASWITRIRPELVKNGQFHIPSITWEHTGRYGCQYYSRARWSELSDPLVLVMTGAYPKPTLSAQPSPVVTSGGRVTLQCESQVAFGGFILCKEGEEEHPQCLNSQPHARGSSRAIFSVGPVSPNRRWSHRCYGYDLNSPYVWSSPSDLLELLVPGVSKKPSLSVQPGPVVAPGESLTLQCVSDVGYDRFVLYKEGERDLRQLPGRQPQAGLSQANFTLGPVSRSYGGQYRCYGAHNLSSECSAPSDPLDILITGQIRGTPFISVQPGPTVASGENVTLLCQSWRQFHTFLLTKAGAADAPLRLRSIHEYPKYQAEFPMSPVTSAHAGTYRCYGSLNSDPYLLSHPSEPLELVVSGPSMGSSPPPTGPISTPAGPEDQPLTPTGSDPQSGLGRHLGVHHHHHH
T11 sequence (O75019 17-461 limits assumed): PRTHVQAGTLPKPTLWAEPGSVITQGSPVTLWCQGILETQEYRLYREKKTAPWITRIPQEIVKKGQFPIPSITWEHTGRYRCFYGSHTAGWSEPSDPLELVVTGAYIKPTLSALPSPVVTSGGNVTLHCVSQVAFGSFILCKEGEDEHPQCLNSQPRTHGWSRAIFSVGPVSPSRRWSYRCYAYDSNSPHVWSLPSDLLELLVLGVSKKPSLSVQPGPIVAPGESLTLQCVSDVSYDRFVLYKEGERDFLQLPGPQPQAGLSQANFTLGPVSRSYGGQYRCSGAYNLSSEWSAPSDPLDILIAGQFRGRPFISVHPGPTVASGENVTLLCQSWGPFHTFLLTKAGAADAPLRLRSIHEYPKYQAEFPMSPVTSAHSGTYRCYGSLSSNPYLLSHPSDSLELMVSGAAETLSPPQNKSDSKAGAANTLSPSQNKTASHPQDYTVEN
T3 sequence (Q8NHL6 other isoform, or with tags, fused parts or gaps): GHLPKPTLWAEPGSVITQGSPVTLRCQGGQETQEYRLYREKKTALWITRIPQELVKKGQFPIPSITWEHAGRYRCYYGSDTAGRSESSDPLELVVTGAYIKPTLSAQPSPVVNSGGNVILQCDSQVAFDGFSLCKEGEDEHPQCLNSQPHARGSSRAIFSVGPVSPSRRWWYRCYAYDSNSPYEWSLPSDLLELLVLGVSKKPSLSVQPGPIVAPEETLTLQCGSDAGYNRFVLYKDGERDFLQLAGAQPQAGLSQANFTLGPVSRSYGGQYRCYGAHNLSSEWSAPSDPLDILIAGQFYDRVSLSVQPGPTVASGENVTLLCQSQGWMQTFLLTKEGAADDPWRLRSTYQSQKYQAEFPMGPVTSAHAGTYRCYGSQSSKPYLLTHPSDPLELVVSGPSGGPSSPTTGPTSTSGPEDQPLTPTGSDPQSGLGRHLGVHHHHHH
T8 sequence (Q8N6C8 24-439 limits assumed): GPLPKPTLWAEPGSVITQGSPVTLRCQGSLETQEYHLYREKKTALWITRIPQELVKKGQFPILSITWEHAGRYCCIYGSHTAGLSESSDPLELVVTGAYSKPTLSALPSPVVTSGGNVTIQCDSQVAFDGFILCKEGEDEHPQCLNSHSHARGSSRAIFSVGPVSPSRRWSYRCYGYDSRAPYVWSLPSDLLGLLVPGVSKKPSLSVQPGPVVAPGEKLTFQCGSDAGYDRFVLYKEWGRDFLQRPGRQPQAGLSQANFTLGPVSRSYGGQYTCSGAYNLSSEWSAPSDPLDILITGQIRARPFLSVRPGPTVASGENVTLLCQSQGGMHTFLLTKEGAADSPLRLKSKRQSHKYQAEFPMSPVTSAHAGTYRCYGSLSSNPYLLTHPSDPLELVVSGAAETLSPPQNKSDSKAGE
T4 sequence (O75023 24-458 limits assumed): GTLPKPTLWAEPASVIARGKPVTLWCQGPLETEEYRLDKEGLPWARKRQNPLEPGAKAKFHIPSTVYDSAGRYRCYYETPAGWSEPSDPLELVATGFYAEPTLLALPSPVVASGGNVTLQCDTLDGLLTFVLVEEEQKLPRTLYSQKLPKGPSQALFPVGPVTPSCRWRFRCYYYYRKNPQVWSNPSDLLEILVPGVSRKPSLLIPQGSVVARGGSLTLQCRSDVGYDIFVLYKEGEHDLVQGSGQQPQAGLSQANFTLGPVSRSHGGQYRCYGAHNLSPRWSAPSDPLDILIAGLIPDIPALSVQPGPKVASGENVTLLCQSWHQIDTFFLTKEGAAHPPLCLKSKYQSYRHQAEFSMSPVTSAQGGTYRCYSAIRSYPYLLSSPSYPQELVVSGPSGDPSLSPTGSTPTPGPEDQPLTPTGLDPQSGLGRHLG
T6 sequence (P59901 24-446 limits assumed): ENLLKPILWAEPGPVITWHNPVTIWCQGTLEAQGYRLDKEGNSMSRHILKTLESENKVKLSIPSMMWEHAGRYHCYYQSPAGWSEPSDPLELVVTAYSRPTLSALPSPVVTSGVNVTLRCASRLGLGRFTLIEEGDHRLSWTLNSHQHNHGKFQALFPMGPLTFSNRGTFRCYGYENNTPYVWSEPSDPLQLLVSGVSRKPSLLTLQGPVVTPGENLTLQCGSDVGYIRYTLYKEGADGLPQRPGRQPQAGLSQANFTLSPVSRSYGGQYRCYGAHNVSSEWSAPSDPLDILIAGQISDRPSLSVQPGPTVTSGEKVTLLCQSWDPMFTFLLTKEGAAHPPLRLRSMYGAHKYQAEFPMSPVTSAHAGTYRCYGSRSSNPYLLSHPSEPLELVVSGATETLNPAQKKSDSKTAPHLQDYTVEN
T7 sequence (Q6PI73 24-447 limits assumed): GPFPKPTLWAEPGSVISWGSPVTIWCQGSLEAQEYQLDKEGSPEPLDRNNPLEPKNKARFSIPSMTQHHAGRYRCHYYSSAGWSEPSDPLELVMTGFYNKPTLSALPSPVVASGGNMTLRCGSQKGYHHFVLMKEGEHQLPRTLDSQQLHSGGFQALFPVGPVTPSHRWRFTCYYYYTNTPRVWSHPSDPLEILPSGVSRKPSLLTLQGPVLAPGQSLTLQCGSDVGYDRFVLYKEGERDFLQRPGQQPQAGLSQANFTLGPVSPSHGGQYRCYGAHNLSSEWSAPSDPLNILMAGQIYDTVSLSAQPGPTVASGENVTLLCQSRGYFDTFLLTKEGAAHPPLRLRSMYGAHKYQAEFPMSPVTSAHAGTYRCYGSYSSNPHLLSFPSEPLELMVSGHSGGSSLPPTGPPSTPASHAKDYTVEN
T1 sequence (Q8N423 other isoform, or with tags, fused parts or gaps limits assumed): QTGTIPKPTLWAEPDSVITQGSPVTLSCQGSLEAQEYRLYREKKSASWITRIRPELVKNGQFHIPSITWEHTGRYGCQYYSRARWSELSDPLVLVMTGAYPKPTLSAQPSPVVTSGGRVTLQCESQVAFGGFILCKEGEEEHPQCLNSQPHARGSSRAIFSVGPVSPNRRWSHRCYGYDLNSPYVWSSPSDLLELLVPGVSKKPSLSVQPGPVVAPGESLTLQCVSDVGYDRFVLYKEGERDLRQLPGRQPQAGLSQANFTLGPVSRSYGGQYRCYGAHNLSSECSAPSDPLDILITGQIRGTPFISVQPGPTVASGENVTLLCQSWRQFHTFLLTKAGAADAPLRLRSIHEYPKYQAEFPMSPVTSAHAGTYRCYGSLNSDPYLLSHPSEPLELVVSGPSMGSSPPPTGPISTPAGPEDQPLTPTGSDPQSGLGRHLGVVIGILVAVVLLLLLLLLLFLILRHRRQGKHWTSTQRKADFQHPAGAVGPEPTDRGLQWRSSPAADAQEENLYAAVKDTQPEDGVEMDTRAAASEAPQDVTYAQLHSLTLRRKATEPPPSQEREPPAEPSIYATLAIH

B1: positive control antibody JTX (sequences from WO2019126514A2) (antibody, human IgG4 S228P, kappa, V domains shown)
VH: QITLKESGPTLVKPTQTLTLTCTFSGFSLNTYAMGVSWIRQPPGKALEWLASIWWNGNKYNNPSLKSRLTVTKDTSKNQVVLTMTNMDPVDTATYYCAHSRIIRFTDYVMDAWGQGTLVTVSS
VL: DIQMTQSPSSLSTSVGDRVTITCRASEDIYNDLAWYQQKPGKAPKLLIYNANSLHTGVASRFSGSGSGTDFTFTISSLQPEDVATYFCQQYYDYPLTFGQGTKLEIKR
notes: also called JTX-8064
IC50 [1]: 0.022 µg/mL
EC50 [2]: 0.0826 µg/mL
Top [2]: 1.7 absorbance at 450 nm
EC50 [3]: 0.0826 µg/mL
IC50 [4]: 0.12 µg/mL
IC50 [5]: 0.061 µg/mL
EC50 [6]: 0.0801 µg/mL
Top [6]: 1.14 absorbance at 450 nm
IC50 [7]: 0.12 µg/mL
EC50 [8]: 0.0293 µg/mL
EC50 [9]: 0.083 µg/mL

B2: chimeric antibody ChP1-C4 (antibody, human IgG4 S228P, kappa, F234A L235A, V domains shown)
VH: QVQLKQSGAELVRPGASVKLSCKASGYSFTDYYINWVKQRPGQGLEWIARIYPGNDNTYYNEKFKDKATLTADSSSSTAYMQLSSLTSEDSAVYFCTRSQDGYYEENAMDYWGQGTSVTVSS
VL: DIQMTQSPASLSVSVGETVTITCRASENIYSNLAWYQQRQGKSPQLLVYAATNLADGVPFRFSGSGSGTQYSLKINSLQSEDFGSYYCQQFWGSPHTFGGGTKLEIKR
notes: Murine variable regions with hIgG4(LALA) and CL constant regions; also called M P1-C4
EC50 [3]: 0.0643 µg/mL

B3: chimeric antibody ChP1-D7 (antibody, human IgG4 S228P, kappa, F234A L235A, V domains shown)
VH: QIQLVQSGPDLKKPGETVKISCKASGYTFTTYGMNWVKQAPGKALKWMGWINTYSGVPTYADDFKGRFAFSLETSATTAYLQINNLKNEDTATYFCARRTDYDGYVMDCWGQGTSVTVSS
VL: DIVMSQSPSSLAVSIGEKVTMSCKSSQSLFYSGNQKNYLAWYLQKPGQSPKLLLYWASTRESGVPDRFTGSGSGTDFTLTISSVMAEDLAVYYCQQYFSYPPTFGGGTKLEIKR
notes: Murine variable regions with hIgG4(LALA) and CL constant regions; also called M P1-D7
EC50 [8]: 0.0292 µg/mL

B4: chimeric antibody ChP1-E11 (antibody, human IgG4 S228P, kappa, F234A L235A, V domains shown)
VH: EVQLQQSGPELVKPGASVKMSCQASGYTFTDYSIHWVKQSRGASLEWIGYINPNNGVTNYNQKFKGKATLTVNKSSSTAYMELRSLTSEDSAVYYCAREGDSVTTIVVHWYFDVGGTGTTVTVSS
VL: DIQMTQSPASLSVSLGETVTITCRASENIYSNLVWYQQKQGKFPQLLVYAAINLVDGVPSRFSGSGSGTQYSLKINSLQSEDFGSYYCQQFWDTPLTFGAGTKLEIKR
notes: Murine variable regions with hIgG4(LALA) and CL constant regions; also called M P1-E11
EC50 [9]: 0.041 µg/mL

B5: fully human-derived antibody P2m (antibody, human IgG1, kappa, L234A L235A, V domains shown)
VH: QVQLVQSGAEVKKPGSSVKVSCKASGYTFTSYDISWVRQAPGQGLEWMGGIIPIFGTANYAQKFQGRVTITADESTSTAYMELSSLRSEDTAVYYCTAGIFLATAYWGQGTLVTVSS
VL: DIQMTQSPSSMSASVGDRVTISCQASQDIQNYLNWYQQRPGQAPKLLIYDASTLETGVPSRFSGSGSGTYFTLTISSLQPEDVATYYCQQYENVPITFGQGTRLEIKR
notes: Full chains
absorbance at 450 nm [10]: 0.0517 absorbance at 450 nm
absorbance at 450 nm [11]: 0.0663 absorbance at 450 nm
absorbance at 450 nm [12]: 0.0459 absorbance at 450 nm
absorbance at 450 nm [13]: 0.0543 absorbance at 450 nm
absorbance at 450 nm [14]: 0.0453 absorbance at 450 nm
absorbance at 450 nm [15]: 1.87 absorbance at 450 nm
absorbance at 450 nm [16]: 0.0468 absorbance at 450 nm
absorbance at 450 nm [17]: 0.0448 absorbance at 450 nm
absorbance at 450 nm [18]: 0.0671 absorbance at 450 nm
absorbance at 450 nm [19]: 0.0469 absorbance at 450 nm
binding result [20]: no binding (tested: 10 µg/mL)
binding result [21]: no binding (tested: 10 µg/mL)
binding result [22]: no binding (tested: 10 µg/mL)
binding result [23]: no binding (tested: 10 µg/mL)
binding result [24]: no binding (tested: 10 µg/mL)
binding result [25]: no binding (tested: 10 µg/mL)
binding result [26]: no binding (tested: 10 µg/mL)
binding result [27]: no binding (tested: 10 µg/mL)
binding result [28]: no binding (tested: 10 µg/mL)
Kd [29]: 0.0433 nM
koff [29]: 8.78e-05 s⁻¹
kon [29]: 2.03e+06 M⁻¹ s⁻¹
IC50 [5]: 0.033 µg/mL

B6: humanized antibody huP2-E3 (antibody, human IgG4 S228P, kappa, F234A L235A, V domains shown)
VH: EVQLVQSGAEVKKPGASVKVSCKASGYTFTDYYMNWVKQAPGQRLEWMGDINPNSGGTSYNQKFKGRVTITVDKSGSTAYMELSSLRSEDTAVYYCARGGVTTVVATYWYFDVWGQGTTVTVSS
VL: DIQMTQSPSSLSASVGDRVTITCRASENIYSNLAWYQQKPGKSPKLLVYAATNVADGVPSRFSGSGSGTDYTLTISSLQPEDFATYYCQQFWDTPFTFGQGTKLEIKR
notes: Full chains; The constant region is hIgG1(LALA) or hIgG4(LALA) with a kappa CL; also called P2-E3H6L2
EC50 [30]: 0.0307 µg/mL
absorbance at 450 nm [10]: 0.0541 absorbance at 450 nm
absorbance at 450 nm [11]: 0.0523 absorbance at 450 nm
absorbance at 450 nm [12]: 0.0466 absorbance at 450 nm
absorbance at 450 nm [13]: 0.0605 absorbance at 450 nm
absorbance at 450 nm [14]: 0.047 absorbance at 450 nm
absorbance at 450 nm [15]: 1.04 absorbance at 450 nm
absorbance at 450 nm [16]: 0.0476 absorbance at 450 nm
absorbance at 450 nm [17]: 0.055 absorbance at 450 nm
absorbance at 450 nm [18]: 0.0699 absorbance at 450 nm
absorbance at 450 nm [19]: 0.0532 absorbance at 450 nm
binding result [20]: no binding (tested: 10 µg/mL)
binding result [21]: no binding (tested: 10 µg/mL)
binding result [22]: no binding (tested: 10 µg/mL)
binding result [23]: no binding (tested: 10 µg/mL)
binding result [24]: no binding (tested: 10 µg/mL)
binding result [25]: no binding (tested: 10 µg/mL)
binding result [26]: no binding (tested: 10 µg/mL)
binding result [27]: no binding (tested: 10 µg/mL)
binding result [28]: no binding (tested: 10 µg/mL)
IC50 [1]: 0.012 µg/mL
Kd [29]: 1.26 nM
koff [29]: 0.00127 s⁻¹
kon [29]: 1.01e+06 M⁻¹ s⁻¹
